Measured values published in the supplement of paper PMC10126150.
± gives the standard deviation of the averaged measurements.

system: ATP; assay: switch fluorescence ratio, 500 uM ATP over buffer (Cy3 cluster intensity, sum of 5 cycles each) (fold (ratio)); higher = stronger signal-on switching upon ATP binding; sequences stand for … in TCGTCGGCAGCGTCAGATGTGTATAAGAGACAGTTTTTTTTTTTTTTTTTTTTTTTTT…TC; settings: aptamer strand: ATP DNA aptamer (quencher-CACCTGGGGGAGTATTGCGGAGGAAGG + anchor), 100 nM annealed; ATP concentration: 500 uM
Summary of the method: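 Exposure to 500 uM ATP lasted 15 min at 22 °C before imaging, and a selection-buffer image was taken beforehand, for Cy3-labelled switching-strand clusters on a modified Illumina MiSeq flow-cell annealed to 100 nM quencher-labelled ATP aptamer. Five buffer/ATP cycles were run with NaOH stripping and re-annealing between them. The fluorescence ratio per cluster is summed target-cycle over summed buffer-cycle Cy3 intensity, averaged per switch-domain sequence. Clusters outside 100-1000 RFU were excluded.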

Sequence | switch fluorescence ratio
CGGGGGGGC | 1.001 ± 0.01
CGGGGGGGTG | 1.03 ± 0.096
CGGGGGGTGT | 1.01 ± 0.023
CGGGGGGTTG | 0.984 ± 0.033
CGGGGGTAAG | 0.991 ± 0.027
CGGGGGTCCT | 0.986 ± 0.015
CGGGGGTGGC | 0.984 ± 0.029
CGGGGGTGTC | 0.998 ± 0.026
CGGGGGTTCG | 1.05 ± 0.057
CGGGGGTTGT | 0.963 ± 0.036
CGGGGTAAGT | 1.01 ± 0.021
CGGGGTAATG | 0.979 ± 0.012
CGGGGTACGT | 0.985 ± 0.027
CGGGGTAGCG | 0.965 ± 0.013
CGGGGTATAG | 1.37 ± 0.52
CGGGGTCGCC | 0.984 ± 0.021
CGGGGTGAAT | 1.022 ± 0.0052
CGGGGTGAGG | 0.997 ± 0.014
CGGGGTGCTT | 1.01 ± 0.012
CGGGGTGGTA | 0.9873 ± 0.0069
CGGGGTTGGG | 1.01 ± 0.047
CGGGGTTTTG | 1.014 ± 0.0068
CGGGTAAAGG | 0.9441 ± 0.0076
CGGGTACTAG | 1.02 ± 0.044
CGGGTAGCT | 1.01 ± 0.03

Sequence | switch fluorescence ratio
CGGGTAGTTA | 0.99 ± 0.029
CGGGTATGCC | 0.96 ± 0.0098
CGGGTCCAGC | 1.01 ± 0.033
CGGGTCGGCA | 1.03 ± 0.017
CGGGTCGTGC | 1.03 ± 0.013
CGGGTGATTC | 1.04 ± 0.021
CGGGTGCACT | 0.98 ± 0.027
CGGGTGTAGT | 1.03 ± 0.024
CGGGTGTATC | 1.03 ± 0.046
CGGGTGTGGA | 1.05 ± 0.04
CGGGTGTTCG | 1.02 ± 0.075
CGGGTTAAGT | 1.03 ± 0.11
CGGGTTAAT | 1 ± 0.041
CGGGTTATAA | 1.04 ± 0.022
CGGGTTATGG | 0.981 ± 0.049
CGGGTTCTAT | 0.977 ± 0.036
CGGGTTGCCC | 1 ± 0.012
CGGGTTGCGG | 0.9508 ± 0.009
CGGGTTTAAC | 0.998 ± 0.021
CGGGTTTGAC | 0.984 ± 0.047
CGGGTTTTAT | 1.01 ± 0.028
CGGTAAATAA | 1.01 ± 0.021
CGGTAAGGCG | 0.947 ± 0.11
CGGTAATCGG | 0.988 ± 0.01
CGGTAATGTG | 1.03 ± 0.035

Sequence | switch fluorescence ratio
CGGTAATTTT | 0.975 ± 0.021
CGGTACCATC | 1.02 ± 0.013
CGGTAGTGCG | 0.975 ± 0.021
CGGTCAGGGT | 0.995 ± 0.015
CGGTCATTTT | 0.998 ± 0.033
CGGTCCACGA | 1.022 ± 0.0017
CGGTCGAGGT | 0.993 ± 0.038
CGGTCGGGGA | 1 ± 0.043
CGGTCGGTGT | 0.982 ± 0.022
CGGTCTAATT | 0.9989 ± 0.0027
CGGTCTATGC | 1.12 ± 0.035
CGGTCTCCGG | 1.03 ± 0.012
CGGTCTGTTC | 0.994 ± 0.052
CGGTGAAATG | 0.975 ± 0.017
CGGTGAGGCT | 0.984 ± 0.017
CGGTGAGTGT | 0.9608 ± 0.0063
CGGTGATCGG | 0.996 ± 0.013
CGGTGCCGGT | 0.9841 ± 0.0091
CGGTGCGGGT | 0.992 ± 0.016
CGGTGCGGTG | 0.981 ± 0.013
CGGTGGAATC | 1.36 ± 0.45
CGGTGGCGTC | 1.01 ± 0.048
CGGTGGGGAT | 1.02 ± 0.046
CGGTGGGGCG | 1 ± 0.034
CGGTGGGGT | 1.035 ± 0.0064

Sequence | switch fluorescence ratio
CGGTGGGTCT | 1.006 ± 0.0015
CGGTGGGTTA | 0.985 ± 0.025
CGGTGGTGTG | 0.963 ± 0.048
CGGTGGTTGA | 1.01 ± 0.053
CGGTGTAAAA | 0.961 ± 0.011
CGGTGTCAGC | 1.012 ± 0.0059
CGGTTAAAAT | 0.989 ± 0.023
CGGTTAGCGG | 0.983 ± 0.044
CGGTTAGGCT | 1.06 ± 0.012
CGGTTATCGC | 1.03 ± 0.052
CGGTTATGGT | 0.99 ± 0.022
CGGTTCGGGC | 0.983 ± 0.023
CGGTTCTGTA | 1.01 ± 0.027
CGGTTCTTGA | 0.995 ± 0.038
CGGTTGACGT | 1.01 ± 0.013
CGGTTGAGTA | 0.9982 ± 0.0043
CGGTTGGCGT | 1.04 ± 0.088
CGGTTGGGGT | 0.989 ± 0.0088
CGGTTGTTGA | 1.01 ± 0.031
CGGTTGTTGT | 1.01 ± 0.021
CGGTTTAAGT | 0.993 ± 0.028
CGGTTTAGGA | 0.988 ± 0.028
CGGTTTCCGC | 1.04 ± 0.022
CGGTTTCTGT | 0.9814 ± 0.0092
CGGTTTGGTA | 0.976 ± 0.014

Sequence | switch fluorescence ratio
CGGTTTGTTA | 0.985 ± 0.037
CGGTTTGTTT | 0.987 ± 0.04
CGGTTTTATA | 0.9619 ± 0.0088
CGTAAAAAAT | 0.986 ± 0.068
CGTAACATGG | 1.022 ± 0.0099
CGTAACCCGT | 0.98 ± 0.033
CGTAACCTTA | 1.05 ± 0.15
CGTAACTAGG | 1.02 ± 0.03
CGTAACTGTG | 1.07 ± 0.043
CGTAAGCGTA | 1.04 ± 0.032
CGTAAGGGGG | 1.02 ± 0.035
CGTAATTATG | 1.01 ± 0.03
CGTAATTGCC | 1.002 ± 0.008
CGTAATTTGA | 1.02 ± 0.047
CGTACAATGG | 1.28 ± 0.088
CGTACAGGGG | 1.207 ± 0.004
CGTACGGGTG | 1 ± 0.014
CGTACGGTAA | 1.09 ± 0.042
CGTACGTGCA | 1.02 ± 0.032
CGTACTGTAA | 1.18 ± 0.03
CGTAGAGCGA | 1.03 ± 0.015
CGTAGCGGTA | 1.53 ± 0.098
CGTAGCTTAG | 1.25 ± 0.13
CGTAGGAAGA | 1.02 ± 0.048
CGTAGGAATT | 1.07 ± 0.015

Sequence | switch fluorescence ratio
CGTAGGAGGG | 0.997 ± 0.04
CGTAGGGGTC | 0.959 ± 0.042
CGTAGGGTGT | 1 ± 0.022
CGTAGGGTTT | 0.976 ± 0.055
CGTAGTGAGG | 0.994 ± 0.03
CGTAGTGGGG | 0.993 ± 0.044
CGTAGTTTGT | 1.03 ± 0.076
CGTATAATTT | 0.97555 ± 0.00021
CGTATAGCGG | 1.02 ± 0.076
CGTATAGTTT | 0.9865 ± 0.0096
CGTATCAAAC | 1.23 ± 0.049
CGTATCGGGG | 0.993 ± 0.054
CGTATCGTGG | 1.03 ± 0.031
CGTATCTAGG | 0.98 ± 0.021
CGTATCTATC | 1.007 ± 0.0065
CGTATGAATA | 0.984 ± 0.011
CGTATGGGGG | 1.07 ± 0.08
CGTATGGTTC | 0.996 ± 0.031
CGTATTACAC | 1.045 ± 0.0033
CGTATTGGGC | 0.9577 ± 0.0065
CGTCAAACAT | 1.081 ± 0.0084
CGTCAAATAT | 1.13 ± 0.041
CGTCAACAGG | 1.28 ± 0.062
CGTCACAGTG | 1.04 ± 0.019
CGTCAGCGAA | 1.18 ± 0.039

Sequence | switch fluorescence ratio
CGTCAGTATG | 1 ± 0.033
CGTCATCGCA | 1.2 ± 0.022
CGTCATGATG | 1 ± 0.029
CGTCATTAAG | 0.9994 ± 0.0054
CGTCCCTAGC | 1.61 ± 0.06
CGTCCGAAGT | 2.03 ± 0.18
CGTCCGGTG | 1.78 ± 0.65
CGTCGAATAT | 1.016 ± 0.0016
CGTCGGAATG | 1.091 ± 0.0045
CGTCGGGGAA | 1.02 ± 0.027
CGTCGGGGTT | 0.973 ± 0.032
CGTCGGTTTG | 0.993 ± 0.019
CGTCGTGGAG | 1.01 ± 0.036
CGTCTAAGGT | 0.98 ± 0.044
CGTCTAGACT | 1.018 ± 0.0036
CGTCTATTGT | 0.98 ± 0.046
CGTCTGGTGG | 0.991 ± 0.05
CGTCTTACGT | 1.03 ± 0.051
CGTCTTGTGG | 1 ± 0.022
CGTGACAAGA | 0.986 ± 0.056
CGTGACAGGG | 1.04 ± 0.058
CGTGACCGGG | 0.996 ± 0.016
CGTGACTAAA | 0.9893 ± 0.0079
CGTGAGAAAG | 1 ± 0.018
CGTGAGATGC | 1.01 ± 0.038

Sequence | switch fluorescence ratio
CGTGAGGGAG | 0.994 ± 0.029
CGTGAGGGTA | 1.02 ± 0.028
CGTGAGGGTG | 1.01 ± 0.079
CGTGATATAG | 1.02 ± 0.026
CGTGCAAAAC | 1.82 ± 0.88
CGTGCAAAGA | 1.77 ± 1.1
CGTGCGAAGG | 1.03 ± 0.049
CGTGCGGCTG | 1.028 ± 0.0066
CGTGCTGCAA | 4.91 ± 1.7
CGTGCTGGAA | 0.975 ± 0.045
CGTGGAAGGA | 0.997 ± 0.038
CGTGGCCGCG | 0.959 ± 0.012
CGTGGCGGTA | 1.04 ± 0.031
CGTGGGACTG | 1.02 ± 0.017
CGTGGGAGGT | 0.987 ± 0.036
CGTGGGCAAG | 0.996 ± 0.021
CGTGGGCAGT | 0.956 ± 0.041
CGTGGGCATT | 1.01 ± 0.034
CGTGGGCTGT | 0.9817 ± 0.0074
CGTGGGGAGT | 1 ± 0.012
CGTGGGGGCG | 1.01 ± 0.03
CGTGGGGGGA | 1.03 ± 0.013
CGTGGGGGGG | 1.02 ± 0.052
CGTGGGTAAG | 1.02 ± 0.039
CGTGGGTGGG | 1.01 ± 0.036
